These results are taken from patent US20180326084A1 (Genmab, published 2018).

For assay [1], the target named is T1, human AXL (full length) (human, UniProt P30530 26-894).
T1 construct: also called TH1021-AXL; TH1021-hAXL
Nature of the assay: flow cytometry, Gas6 titrated on A431 cells pre-incubated with 10 µg/mL control antibody b12. On the technique in general: In flow cytometry, cells or beads pass a laser one at a time.

For assay [2], the target named is T1, human AXL (full length). The assay is described as above. This is another data set of the same source.
In assay [3] the target is T1, human AXL (full length). Nature of the assay: flow cytometry, Gas6 titrated on A431 cells pre-incubated with 10 µg/mL IgG1-AXL-107 (competitor).
Assay [4] has as its target T1, human AXL (full length). Nature of the assay: flow cytometry, Gas6 titrated on A431 cells pre-incubated with 10 µg/mL IgG1-AXL-148 (competitor).
For assay [5], the target named is T1, human AXL (full length). Nature of the assay: flow cytometry, Gas6 titrated on A431 cells pre-incubated with 10 µg/mL IgG1-AXL-154 (competitor).
The target in assay [6] is T1, human AXL (full length). Nature of the assay: flow cytometry, Gas6 titrated on A431 cells pre-incubated with 10 µg/mL IgG1-AXL-171 (competitor).
For assay [7], the target named is T1, human AXL (full length). Nature of the assay: flow cytometry, Gas6 titrated on A431 cells pre-incubated with 10 µg/mL IgG1-AXL-183 (competitor).
Assay [8] has as its target T1, human AXL (full length). Nature of the assay: flow cytometry, Gas6 titrated on A431 cells pre-incubated with 10 µg/mL IgG1-AXL-511 (competitor).
The target of assay [9] is T1, human AXL (full length). Nature of the assay: flow cytometry, Gas6 titrated on A431 cells pre-incubated with 10 µg/mL IgG1-AXL-613 (competitor).
Assay [10] has as its target T1, human AXL (full length). Nature of the assay: flow cytometry, Gas6 titrated on A431 cells pre-incubated with 10 µg/mL IgG1-AXL-726 (competitor).
Assay [11] has as its target T1, human AXL (full length). Nature of the assay: flow cytometry, Gas6 titrated on A431 cells pre-incubated with 10 µg/mL IgG1-AXL-733 (competitor).
Assay [12] concerns the target T1, human AXL (full length). Nature of the assay: flow cytometry, Gas6 titrated on A431 cells pre-incubated with 10 µg/mL IgG1-AXL-107 (competitor). This is another data set of the same source.
For assay [13], the target named is T1, human AXL (full length). Nature of the assay: flow cytometry, Gas6 titrated on A431 cells pre-incubated with 10 µg/mL IgG1-AXL-613 (competitor). The source holds these as a separate data set.
Assay [14] has as its target T1, human AXL (full length). Nature of the assay: flow cytometry, A431 cells pre-incubated with medium only; Gas6 detected with mouse anti-Gas6 and FITC anti-mouse IgG.
The target of assay [15] is T1, human AXL (full length). Nature of the assay: flow cytometry, Gas6 titrated on A431 cells pre-incubated with 10 µg/mL YW327.6S2 (competitor); value less accurate due to low binding.
The target in assay [16] is T1, human AXL (full length). The assay is described as above. This is another data set of the same source.
Assay [17] has as its target T1, human AXL (full length). Nature of the assay: flow cytometry, A431 cells, no Gas6.
The target of assay [18] is T2, Homo sapiens AXL-Mus musculus Ig2 domain (p33-AXL-mIg2) (human-mouse chimera, UniProt P30530 26-894).
T2 construct: Expressed in HEK293F cells; also called hsAXL-mmIg2; TH1021-mIg2
T2 chain: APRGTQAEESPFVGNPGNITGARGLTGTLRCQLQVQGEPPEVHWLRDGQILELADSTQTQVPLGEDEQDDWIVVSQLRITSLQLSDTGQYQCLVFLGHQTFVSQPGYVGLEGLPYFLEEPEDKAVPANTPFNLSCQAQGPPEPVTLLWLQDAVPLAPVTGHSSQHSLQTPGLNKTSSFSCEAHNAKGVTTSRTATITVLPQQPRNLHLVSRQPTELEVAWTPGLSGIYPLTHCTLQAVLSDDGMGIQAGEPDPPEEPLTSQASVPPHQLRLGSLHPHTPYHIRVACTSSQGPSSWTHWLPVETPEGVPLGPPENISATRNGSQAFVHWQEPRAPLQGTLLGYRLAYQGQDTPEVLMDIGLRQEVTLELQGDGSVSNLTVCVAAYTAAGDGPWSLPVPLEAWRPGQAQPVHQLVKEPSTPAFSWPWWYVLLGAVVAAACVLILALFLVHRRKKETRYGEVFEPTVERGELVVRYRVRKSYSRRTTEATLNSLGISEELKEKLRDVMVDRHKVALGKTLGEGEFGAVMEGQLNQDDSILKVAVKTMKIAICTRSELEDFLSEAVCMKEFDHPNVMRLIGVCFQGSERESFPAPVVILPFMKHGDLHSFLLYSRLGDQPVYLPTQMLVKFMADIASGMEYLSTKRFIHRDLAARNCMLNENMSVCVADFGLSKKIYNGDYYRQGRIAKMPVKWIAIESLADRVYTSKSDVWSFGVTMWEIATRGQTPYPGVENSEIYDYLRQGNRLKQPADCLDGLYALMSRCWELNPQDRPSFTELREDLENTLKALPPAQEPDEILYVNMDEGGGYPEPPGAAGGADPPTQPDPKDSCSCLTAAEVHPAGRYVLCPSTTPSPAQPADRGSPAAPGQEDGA
Nature of the assay: flow cytometry, 1 µg/mL antibody, transfected HEK293F cells.

Assay [19] addresses T3, Homo sapiens AXL-Mus musculus FN1 domain (p33-AXL-mFN1) (human-mouse chimera, UniProt P30530 26-894).
T3 construct: Expressed in HEK293F cells; also called hsAXL-mmFN1; TH1021-mFN1
T3 chain: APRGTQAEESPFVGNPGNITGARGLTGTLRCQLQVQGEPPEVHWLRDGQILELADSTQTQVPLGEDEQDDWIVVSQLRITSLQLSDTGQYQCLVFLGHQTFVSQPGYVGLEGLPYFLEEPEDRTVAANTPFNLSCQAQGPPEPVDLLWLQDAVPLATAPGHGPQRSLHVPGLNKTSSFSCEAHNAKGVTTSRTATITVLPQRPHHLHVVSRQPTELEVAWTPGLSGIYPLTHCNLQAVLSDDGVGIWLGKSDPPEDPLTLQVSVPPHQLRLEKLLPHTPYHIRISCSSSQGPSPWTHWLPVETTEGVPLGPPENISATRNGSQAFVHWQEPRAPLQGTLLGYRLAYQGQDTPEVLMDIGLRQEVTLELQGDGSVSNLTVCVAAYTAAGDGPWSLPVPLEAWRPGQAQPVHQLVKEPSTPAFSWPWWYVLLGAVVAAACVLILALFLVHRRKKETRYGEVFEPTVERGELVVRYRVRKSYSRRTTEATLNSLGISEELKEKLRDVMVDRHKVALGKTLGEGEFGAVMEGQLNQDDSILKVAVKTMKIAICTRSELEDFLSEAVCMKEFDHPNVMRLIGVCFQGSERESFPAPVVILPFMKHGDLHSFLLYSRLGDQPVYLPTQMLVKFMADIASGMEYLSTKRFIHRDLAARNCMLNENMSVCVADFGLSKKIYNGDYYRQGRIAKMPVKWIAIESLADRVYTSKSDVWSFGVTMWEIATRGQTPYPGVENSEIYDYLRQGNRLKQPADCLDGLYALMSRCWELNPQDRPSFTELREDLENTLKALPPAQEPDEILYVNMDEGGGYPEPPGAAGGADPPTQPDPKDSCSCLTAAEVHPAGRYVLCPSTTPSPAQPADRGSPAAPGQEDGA
The assay is described as above.

Assay [20] concerns the target T4, Homo sapiens AXL-Mus musculus FN2 domain (p33-AXL-mFN2) (human-mouse chimera, UniProt P30530 26-894).
T4 construct: Expressed in HEK293F cells; also called hsAXL-mmFN2; TH1021-mFN2
T4 chain: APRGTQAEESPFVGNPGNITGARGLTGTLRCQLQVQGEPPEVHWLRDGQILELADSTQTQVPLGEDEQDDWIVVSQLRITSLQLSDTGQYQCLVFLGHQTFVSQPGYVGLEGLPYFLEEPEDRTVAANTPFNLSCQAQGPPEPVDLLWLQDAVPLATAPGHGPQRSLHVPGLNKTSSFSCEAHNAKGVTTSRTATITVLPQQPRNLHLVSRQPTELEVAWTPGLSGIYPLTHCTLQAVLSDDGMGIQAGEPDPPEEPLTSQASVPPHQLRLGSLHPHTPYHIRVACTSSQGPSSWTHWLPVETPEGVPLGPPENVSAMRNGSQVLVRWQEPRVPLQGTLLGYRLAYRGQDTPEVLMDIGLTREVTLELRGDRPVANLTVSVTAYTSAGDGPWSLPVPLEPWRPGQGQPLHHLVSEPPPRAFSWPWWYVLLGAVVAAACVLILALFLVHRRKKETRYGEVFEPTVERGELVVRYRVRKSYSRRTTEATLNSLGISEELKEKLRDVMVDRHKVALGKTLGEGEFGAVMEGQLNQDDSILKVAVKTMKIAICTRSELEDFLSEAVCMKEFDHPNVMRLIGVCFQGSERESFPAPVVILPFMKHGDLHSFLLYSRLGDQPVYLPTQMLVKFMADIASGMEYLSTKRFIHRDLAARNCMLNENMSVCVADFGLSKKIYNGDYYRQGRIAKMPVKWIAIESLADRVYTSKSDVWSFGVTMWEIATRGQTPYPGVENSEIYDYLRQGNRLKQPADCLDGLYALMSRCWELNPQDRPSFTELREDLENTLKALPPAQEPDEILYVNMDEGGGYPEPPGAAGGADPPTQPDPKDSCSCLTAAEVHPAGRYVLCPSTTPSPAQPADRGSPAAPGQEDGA
The description is as above.

The target of assay [21] is T1, human AXL (full length). Nature of the assay: flow cytometry, A431 cells pre-incubated with 10 µg/mL Gas6 (competitor).

B1: recombinant human Gas6 (ligand, UniProt Q14393 49-678, looked up)
chain: AFQVFEEAKQGHLERECVEELCSREEAREVFENDPETDYFYPRYLDCINKYGSPYTKNSGFATCVQNLPDQCTPNPCDRKGTQACQDLMGNFFCLCKAGWGGRLCDKDVNECSQENGGCLQICHNKPGSFHCSCHSGFELSSDGRTCQDIDECADSEACGEARCKNLPGSYSCLCDEGFAYSSQEKACRDVDECLQGRCEQVCVNSPGSYTCHCDGRGGLKLSQDMDTCEDILPCVPFSVAKSVKSLYLGRMFSGTPVIRLRFKRLQPTRLVAEFDFRTFDPEGILLFAGGHQDSTWIVLALRAGRLELQLRYNGVGRVTSSGPVINHGMWQTISVEELARNLVIKVNRDAVMKIAVAGDLFQPERGLYHLNLTVGGIPFHEKDLVQPINPRLDGCMRSWNWLNGEDTTIQETVKVNTRMQCFSVTERGSFYPGSGFAFYSLDYMRTPLDVGTESTWEVEVVAHIRPAADTGVLFALWAPDLRAVPLSVALVDYHSTKKLKKQLVVLAVEHTALALMEIKVCDGQEHVVTVSLRDGEATLEVDGTRGQSEVSAAQLQERLAVLERHLRSPVLTFAGGLPDVPVTSAPVTAFYRGCMTLEVNRRLLDLDEAAYKHSDITAHSCPPVEPAAA
notes: Bought reagent; also called hGas6; Growth Arrest-Specific 6
What is called EC50 is the midpoint of the concentration-response curve. A high value points to a less potent agent. For orientation: EC50 (read off the curve) means the concentration at which the effect is half-maximal. Low values mean higher potency in that assay, high ones lower potency in that assay. As to B1, the EC50 in assay [1] was 0.4 µg/mL; in assay [2], 0.4 µg/mL; in [3], 0.78 µg/mL; in assay [4] it was 0.73 µg/mL; in assay [5], 0.44 µg/mL; in assay [6], 0.69 µg/mL. In addition, the EC50 worked out at 0.34 µg/mL in [7]; 0.74 µg/mL in assay [8]; 0.57 µg/mL in assay [9]; 0.77 µg/mL in [10]; 0.83 µg/mL in assay [11]; 0.78 µg/mL in [12]. Moreover, the EC50 was 0.57 µg/mL in assay [13], 5.53 µg/mL in assay [15] and 5.53 µg/mL in assay [16]. Moreover, in assay [14], the “EC50 (read off the curve)” value was roughly 0.1 µg/mL.

B2: IgG1-AXL-061 (antibody, V domains shown)
VH: QVQLVQSGAEVKKPGASVKVSCKASGYAFTGYGISWVRQAPGQGLEWIGWISAYNGNTNYVQNLQDRVTMTTDTSTSTAYMELRSLRSDDTAVYYCARDHISMLRGIIIRNYWGQGTLVTVSS
VL: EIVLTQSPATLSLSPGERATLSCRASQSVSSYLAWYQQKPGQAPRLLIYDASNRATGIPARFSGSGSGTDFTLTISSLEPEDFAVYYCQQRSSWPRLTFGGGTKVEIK
Take B2: in [17], the EC50 is 0.15 µg/mL. Besides, the binding result in [18], in assay [19] and in [20] was “binds” in each case. For the same molecule, in assay [21], the “maximal binding in presence of Gas6 (% of binding in absence of Gas6)” value came out at 43%.
